According to publication PMC9984183 (Science Advances, 2023):

Target: human secretory pathway Ca2+/Mn2+ ATPase 1, isoform 1a (SPCA1a), PA-tagged (human, UniProt P98194)
Assay: SEC

Chain of human secretory pathway Ca2+/Mn2+ ATPase 1, isoform 1a (SPCA1a), PA-tagged (P98194 whole entry, canonical isoform): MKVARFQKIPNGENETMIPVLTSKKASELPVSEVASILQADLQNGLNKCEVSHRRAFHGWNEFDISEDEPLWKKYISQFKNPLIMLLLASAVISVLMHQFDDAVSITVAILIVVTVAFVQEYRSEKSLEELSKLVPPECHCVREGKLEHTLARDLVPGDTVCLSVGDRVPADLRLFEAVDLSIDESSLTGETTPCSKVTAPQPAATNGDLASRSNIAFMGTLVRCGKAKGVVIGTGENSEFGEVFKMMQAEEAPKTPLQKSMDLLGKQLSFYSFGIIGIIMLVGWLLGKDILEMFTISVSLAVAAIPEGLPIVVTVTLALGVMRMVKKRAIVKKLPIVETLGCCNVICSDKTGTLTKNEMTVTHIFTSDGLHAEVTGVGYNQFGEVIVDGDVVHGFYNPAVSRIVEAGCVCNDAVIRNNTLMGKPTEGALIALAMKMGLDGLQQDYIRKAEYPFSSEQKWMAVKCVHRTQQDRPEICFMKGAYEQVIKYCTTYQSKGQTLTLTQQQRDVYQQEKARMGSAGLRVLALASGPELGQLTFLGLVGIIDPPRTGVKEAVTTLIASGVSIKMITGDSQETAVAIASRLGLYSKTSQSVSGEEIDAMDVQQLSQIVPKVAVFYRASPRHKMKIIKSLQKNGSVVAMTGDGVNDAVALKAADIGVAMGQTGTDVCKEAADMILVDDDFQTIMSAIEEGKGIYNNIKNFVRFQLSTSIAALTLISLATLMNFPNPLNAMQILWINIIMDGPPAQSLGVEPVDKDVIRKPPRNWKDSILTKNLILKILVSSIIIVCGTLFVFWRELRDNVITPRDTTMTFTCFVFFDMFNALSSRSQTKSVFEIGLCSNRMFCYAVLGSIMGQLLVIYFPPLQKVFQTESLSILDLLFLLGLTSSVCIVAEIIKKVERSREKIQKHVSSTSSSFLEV

- binding result: binds
B1: nanobody 14 (Nb14), recombinant (VHH)
VHH: QVQLQESGGGLVQAGGSLRLSCAASGSIFGADWMGWYRQAPGKEREFVAGIGHGASTYYADSVKGRFTISRDNAKNTVYLQMNSLKPEDTAVYYCAVQYTQGWSGQYRSYDSLLYWGQGTQVTVSS
